Laboratory results as given in the supplement of paper PMC9170038.

System: K4 kissing-loop RNA reporter
Assay: apparent KD of K4 kissing-loop reporter; higher = weaker reporter binding
Settings: Eterna round: R107
Experimental: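 RNA-MaP round R107: designed RNA switches with theophylline, tryptophan, arginine or FMN aptamers are transcribed on-chip within common flanks. They are titrated with a labelled K4 kissing-loop RNA reporter in RNA-MaP buffer (100 mM Tris pH 7.5, 80 mM KCl, 4 mM MgCl2), without ligand or with the indicated ligand. Median apparent KD per design.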

[1] = input ligand: theophylline 20 uM
[2] = input ligand: tryptophan 2.4 mM
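Further: bound reporter read as fluorescence of individual clusters on recovered sequencing chips by microscopy, with normalized cluster intensities fitted with a binding model.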

Row | Sequence | apparent KD of K4 kissing-loop reporter (input ligand: FMN 200 uM) | apparent KD of K4 kissing-loop reporter (input ligand: arginine 13.2 mM) | apparent KD of K4 kissing-loop reporter (input ligand: none) | apparent KD of K4 kissing-loop reporter [1] | apparent KD of K4 kissing-loop reporter [2]
1 | UCUAAGGUCGAACCGGUAUGAUCACCGGAUACCAGAGGCGAAAGCCUCCCUUGGCAGCCGAGUGUAGUGAUGUUACACGGGUUCU | 166 nM | 147 nM | 175 nM | 310 nM | 166 nM
2 | UCUGUUGUAUAUGAUACCAGCAGUGAGAGACAGGAAGUAUAGUGAUGUUAUAUGAGAGAAUGCCCUUGGCAGCGUGUGCGGGUGG [SSTheophylB.X] | 138 nM | 130 nM | 165 nM | 116 nM | 99.1 nM
3 | UCUUGCGGCGCAGGAUAUCCGUCUGUCUCCUGCGUCAUUCUGCAGUGAUGUUGCAGGUGACGGAUAGGAGAAGGGCGAACGUACA [Diinonorce] | 133 nM | 104 nM | 124 nM | 117 nM | 112 nM
4 | UCUUUAGUAUAUGAUACCAGCAGUGAGAGACAGGAAGUAUAGUGAUGUUAUAUGAGAGAAUGCCCUUGGCAGCGUGUGCGGUGGG [SSTheophylB.T] | 132 nM | 103 nM | 93.4 nM | 119 nM | 101 nM
5 | UGACAUUGCUCAGAUACCAGACAUGAGCAUCAGCCAUGUGCCAAACGUACAAUAAUAAAUGUCCCUUGGCAGCUGAGCAAUGUCU [TheoBX 14] | 74.2 nM | 33.1 nM | 53.1 nM | 100 nM | 44.8 nM
6 | UGACAUUGCUCAGAUACCAGACUUGAGGAACACCCAAGUGCCAAAUAAACGUACAUAAAAGUCCCUUGGCAGCUGAGCAAUGUCU [TheoBX 11] | 66 nM | 34.1 nM | 62.5 nM | 104 nM | 45.3 nM
7 | UGACAUUGCUCAGAUACCAGACUUGAGGAUCACCCAAGUGCCAAAUAAACGUACAUAAAAGUCCCUUGGCAGCUGAGCAAUGUCU [TheoBX 11] | 72.9 nM | 46.3 nM | 41.3 nM | 99 nM | 33.4 nM
8 | UGACGUUUGGGAAGGAGCGGAAUGUAAUACGGAACGCGUGGAGAUGCAGUGAUGUUGCAGAUCCAGGUAGGUCGCCCAAGGGACG [Zainat] | 91.4 nM | 72 nM | 76.2 nM | 84.9 nM | 94.2 nM
9 | UGACUGGACUGAAGGAGCGCGAAAACUCCUAGUGAUGUUAGGAAAACGAGACAAAGUCUCGCGCAGGUAGGUCGCAGUCUAGUCU [ArgBS 20 #SwitchBubble #StaticStem] | 131 nM | 102 nM | 121 nM | 129 nM | 113 nM
10 | UGACUGGACUGAAGGAGCGCUUAACUCCUAGUGAUGUUAGGAUAACGAGACAAAGUCUCGAAGCAGGUAGGUCGCAGUCUAGUCU | 157 nM | 104 nM | 118 nM | 126 nM | 128 nM
11 | UGACUGGAUGGAAGGAGCGCUAAACUCCUAGUGAUGUUAGGGAAACGAGACAAAGUCUCGAAGCAGGUAGGUCGCCAUCUAGUCU [FiskerMod 14 - Jieux - Same State - Arginine B] | 176 nM | 134 nM | 158 nM | 146 nM | 155 nM
12 | UGACUGGAUGGAAGGAGCGCUAAACUCCUAGUGAUGUUAGGGAAAUGAGACAAAGUCUCAAGGCAGGUAGGUCGCCAUCUAGUCU [FiskerMod 16 - Jieux - Same State - Arginine B] | 142 nM | 78.6 nM | 174 nM | 506 nM | 177 nM
13 | UGACUGGAUGGAAGGAGCGCUAAACUCCUAGUGAUGUUAGGGAUACGAGGCAAAGCCUCGAGGCAGGUAGGUCGCCAUCUAGUCU [FiskerMod 24 - Jieux - Same State - Arginine B] | 167 nM | 129 nM | 124 nM | 147 nM | 136 nM
14 | UGAUAAAGCAGUGAUGUUGCAAGUAAUGAUACCAGUUAAGAAGAGAACCCUUGGCAGCAUAAAGUGCGCUCUAAUGAGUGUGCUU [whbob_SS_Theo_A_w51] | 82.9 nM | 138 nM | 103 nM | 169 nM | 91.3 nM
15 | UGAUACCAGACGGCCGCCACUAGGACCGGGAGUGAUGUUCCAAAAUUAAAAUACUCGGCCGCCACUAGGACCGGGUCUGGUAUCU [TrypBX 25 #DoubleAptamer #SwitchBubble] | 225 nM | 137 nM | 162 nM | 205 nM | 75.4 nM
16 | UGAUACCAGACUGAUACCAGCCAGUGAUGUUGGCUAAGCCGAAGAGGUGUCAAAGACACCGGCCCUUGGCAGCAGUCUGGUAUCU [#06 K4 Theophylline B Exclusion] | 132 nM | 117 nM | 114 nM | 117 nM | 117 nM
17 | UGAUAGGACAGAAGGAGCGGAAGUGAUGUUUCCAAUGGAUAAAAGGUGUCAAAGACACCCUUCCAGGUAGGUCGCUGUCCUAUCU [ArgBX 17 #Palindromic #SwitchBubble #StaticStem] | 146 nM | 160 nM | 148 nM | 141 nM | 132 nM
18 | UGAUAGGACAGAAGGAGCGGGAGUGAUGUUCCCAAUAAAAGGUCUAGCAAAGCUAGACCCUCCCAGGUAGGUCGCUGUCCUAUCU [ArgBX 2 #Palindromic #SwitchBubble #StaticStem] | 234 nM | 265 nM | 268 nM | 245 nM | 219 nM
19 | UGAUAGGACAGAAGGAGCGGUAGUGAUGUUACCAAAAGGCUAAGGUGUCAAAAGACACCCUACCAGGUAGGUCGCUGUCCUAUCU | 131 nM | 131 nM | 137 nM | 121 nM | 103 nM
20 | UGAUCACAGUGAUGUUGUGGCAAAAGUGAUACCAGCCGUGUACGAGGCCCUUGGCAGCACCAGGGCUGUACGUCGUUAGAUCCGG [theeternabot_exclusion_KL_Theo_A_33] | 211 nM | 156 nM | 194 nM | 177 nM | 169 nM
21 | UGAUUUAACUGAAGGAGCGGCAAGAGAGAAGGAAAUAUAGUGAUGUUAUAUAAGAGAGAGAGCCAGGUAGGUCGCAGAGGGAGGA [ExArgB.E] | 126 nM | 126 nM | 173 nM | 178 nM | 137 nM
22 | UGCACGGGCUCGGCCGCCACUCCCGCGGGUCGAAAGGUCCGCUACUGAGUGAUGUUCGGUUGGAGGAGGACCGGGAGCCCGUGCA [#2 Exclusion - Tryptophan B Attempt #24 (HarryS)] | 95.6 nM | 92.9 nM | 108 nM | 69.7 nM | 69.2 nM

Row | Sequence | apparent KD of K4 kissing-loop reporter (input ligand: FMN 200 uM) | apparent KD of K4 kissing-loop reporter (input ligand: arginine 13.2 mM) | apparent KD of K4 kissing-loop reporter (input ligand: none) | apparent KD of K4 kissing-loop reporter [1] | apparent KD of K4 kissing-loop reporter [2]
23 | UGCAGUGAUGUUGCUAUUUUUCUUGAUUAACGAGGACCGGUACGGCCGCCACUCGAUUUCUCUCUAGUCCAGUAUGUUGUUUGAU [whbob_EX_Tryp_A_t5] | 96.2 nM | 124 nM | 99.8 nM | 125 nM | 82.9 nM
24 | UGCGCUGUGUACUGUAAUGUUAUGCGGGAUACCAGAGUCUUUUUAUUCCCUUGGCAGCUUGAGUGAUGUUUGAUGCCGUUCUUGU [plpkmullin] | 481 nM | 327 nM | 504 nM | 452 nM | 401 nM
25 | UGCUGUCAAUAAGAUACCAGUUGGACUGAGUGAUGUUCAUCCAUUAUAUCUAUUCUGCUUAACCCUUGGCAGCUUGAUGACGUUU [theeternabot_exclusion_KL_Theo_B_6] | 174 nM | 149 nM | 180 nM | 191 nM | 182 nM
26 | UGCUUUAUCAGAAGGAGCGCGUUAUUCAUAAUAAUAAUCAGUGAUGUUGAUAUAUGAUGAUUGCAGGUAGGUCGCUGAUAUAGCU [KL-XARG-B3] | 310 nM | 225 nM | 274 nM | 253 nM | 259 nM
27 | UGGACCUGACUCGAUAAGAGUCAAUGAGAUACCAGCCACGAAAGUGGCCCUUGGCAGCUCUGCCAGUGAUGUUGGUCAAGGUCCU [#SwitchBubble 5 #StaticStem] | 1280 nM | 889 nM | 1550 nM | 584 nM | 1100 nM
28 | UGGAGUUGACGAAAAGUCAACUCCCGAGAAGGAGCGGACGAAAGUCCAGGUAGGUCGCUCGCUACCAGUGAUGUUGGUACUCAAA | 127 nM | 182 nM | 156 nM | 192 nM | 135 nM
29 | UGGAGUUGACGAAAAGUCAACUCCUGAGAAGGAGCGGACGAAAGUCCAGGUAGGUCGCUCACUACCAGUGAUGUUGGUACUAAAA | 160 nM | 157 nM | 141 nM | 66.6 nM | 203 nM
30 | UGGAGUUGACGAAAAGUCAACUCCUGAGAUACCAGUGACGAAAGUCACCCUUGGCAGCUCACUGCCAGUGAUGUUGGUUUAUAAA [#OpenEnded 2] | 167 nM | 135 nM | 134 nM | 266 nM | 130 nM
31 | UGGAGUUGACGAAAAGUCAACUCCUGAGAUACCAGUGACGAAAGUCACCCUUGGCAGCUCACUGGCAGUGAUGUUGCGCGAUAAA [#23 K4 Theophylline A Same State] | 376 nM | 288 nM | 364 nM | 367 nM | 402 nM
32 | UGGAGUUGACGAAAAGUCAACUCCUGGGAAGGAGCGGACGAAAGUCCAGGUAGGUCGCCCACUACCAGUGAUGUUGGUACUCAAA | 178 nM | 196 nM | 170 nM | 266 nM | 169 nM
33 | UGGAUAUAGUGAUGUUAUAUAGAGAUAGAUACCAGUUAAGAGAAUAGCCCUUGGCAGCUGAAAGAAGUAUCAUUAGAGAAGAAUG [ExTheophyl.Ab] | 212 nM | 147 nM | 207 nM | 170 nM | 137 nM
34 | UGGAUAUAGUGAUGUUAUAUAGAGAUGGAUACCAGCAAAGAGAAUUGCCCUUGGCAGCCGAAAGAAGUAUCAUUAGAGAAGAAUG [ExTheophyl.Af] | 285 nM | 221 nM | 278 nM | 277 nM | 206 nM
35 | UGGAUAUAGUGAUGUUAUAUAGAGAUGGAUACCAGCGAAGAGAAUUGCCCUUGGCAGCCGAAAGCAGUAUCAUUAGAGAAGAAUG [#19 K4 Theophylline A Exclusion] | 291 nM | 252 nM | 271 nM | 251 nM | 255 nM
36 | UGGAUAUAGUGAUGUUAUAUAGAGAUGGAUACCAGCUGAGAGAAUAGCCCUUGGCAGCCGAAAGAAGUAUCAUUAGAGAAGAAUG [ExTheophyl.Aj] | 248 nM | 188 nM | 231 nM | 271 nM | 172 nM
37 | UGGCGAGUGAUGUUCGUUGUUGUAGUGUGCCGAGGACCGGUACGGCCGCCACUCGGGUUGGUUGUUGUUGUUGUUGUUGUUGUUG [whbob_SS_tryp_A] | 127 nM | 110 nM | 112 nM | 119 nM | 76.1 nM
38 | UGGGUGUAGUGAUGUUAUAUAGAGAAUGAUACCAGCUUAGAGAGGAGCCCUUGGCAGCGUAGACGAGUAUCAUUGGAGGAGGAGG [#22 K4 Theophylline A Exclusion] | 714 nM | 924 nM | 965 nM | 724 nM | 647 nM
39 | UGUAAGCGCGUAGAUACCAGCAGACGAGUGAUGUUCAAAAGAUUAAGGAAAAGAAAGUAAUGCCCUUGGCAGCUAAUCAUAAGCG [whbob_Ex_Theo_B_sa92] | 243 nM | 460 nM | 466 nM | 517 nM | 295 nM
40 | UGUACCGAGUCAGGAUAUCAUAAUAAUCGAGUGAUGUUCGAAUAACGACUGACAAAGUCGGUCGAUUGAGAAGGGACUUGGUACU [FmnBS 7 #SwitchBubble #StaticStem] | 150 nM | 342 nM | 444 nM | 362 nM | 378 nM
41 | UGUACCGAGUCAGGAUAUGGCGUCGAAAGACGAAUCGUAGUGAUGUUACGGAUCUGCGAAAGCAGUCCAGAAGGGACUUGGUACU [FmnBS 26 G37+C49] | 125 nM | 172 nM | 163 nM | 155 nM | 182 nM
42 | UGUACCGAGUCAGGAUAUGGCGUCGAAAGACGAAUGCUAGUGAUGUUAGGGAUCUGCGAAAGCAGUCUAGAAGGGACUUGGUACU [FmnBS 26 G36+U68] | 359 nM | 361 nM | 471 nM | 483 nM | 525 nM
43 | UGUAUGGACUGAAGGAGCGGUAGAUAAACUGAGUGAUGUUCGGCAAAUAAAGGCGCAAGCCACCAGGUAGGUCGCAGUCCAUACU [KL-SSArg B1] | 289 nM | 182 nM | 235 nM | 236 nM | 205 nM
